According to the Human Domainome abundance scans (Beltran et al. 2025):
± gives the uncertainty stated by the source.

test: abundance fitness (aPCA) (normalised: wild type 0, dead -1); higher = more abundant; growth selection in yeast, the domain comes from the species named; details: Homo sapiens

Compared with “Telomeric repeat-binding factor 2 Y507F, Q15554”, “Telomeric repeat-binding factor 2 K491R, Q15554” is higher in abundance fitness: -0.559 ± 0.17 for the first, -0.21 ± 0.065 for the second.

Going from “Telomeric repeat-binding factor 2 A514R, Q15554” to “Telomeric repeat-binding factor 2 K517Q, Q15554”, the abundance fitness rises from -0.428 ± 0.11 to -0.035 ± 0.044.

“Telomeric repeat-binding factor 2 N523D, Q15554” and “Telomeric repeat-binding factor 2 Q490K, Q15554” are within error of each other in abundance fitness: -0.199 ± 0.061 for the first, -0.247 ± 0.21 for the second.

“Telomeric repeat-binding factor 2 S516L, Q15554” and “Telomeric repeat-binding factor 2 S497D, Q15554” are within error of each other in abundance fitness: 0.222 ± 0.087 for the first, 0.392 ± 0.099 for the second.

Compared with “Telomeric repeat-binding factor 2 A513T, Q15554”, “Telomeric repeat-binding factor 2 I529L, Q15554” is lower in abundance fitness: 0.25 ± 0.098 for the first, -0.213 ± 0.079 for the second.

“Telomeric repeat-binding factor 2 W499Q, Q15554” and “Telomeric repeat-binding factor 2 V522R, Q15554” are within error of each other in abundance fitness: -0.018 ± 0.095 for the first, 0.031 ± 0.058 for the second.

First: Telomeric repeat-binding factor 2 P520D, Q15554
Second: Telomeric repeat-binding factor 2 E509V, Q15554
The abundance fitness of the first is lower: -0.564 ± 0.055 for the first, -0.353 ± 0.076 for the second.

Work on “Telomeric repeat-binding factor 2 N518H, Q15554” yielded an abundance fitness of -0.227 ± 0.068.
